Reference: patent US20150010575A1 (SAMSUNG ELECTRONICS, published 2015)

Biological target: T1, human c-Met/Fc fusion protein (R&D Systems) (human, UniProt P08581 25-932)
T1 construct: Bought from R&D Systems; Coated on microtiter plates at 2 ug/mL; also called human c-Met/Fc protein; not shown: Fc part of the bought fusion protein; not described
Assay: ELISA, human c-Met/Fc coated at 2 ug/mL, hybridoma culture, anti-mouse IgG-HRP
Method: Human c-Met/Fc fusion protein was seeded in an amount of 50 μL (2 μg/mL)/well to microtiter plates and allowed to adhere to the surface of each well. The antibody that remained unbound was removed by washing.
The hybridoma cell culture obtained in Reference Example 1.1.2 was added in an amount of 50 μL to each well of the plates and incubated for 1 hour. The cells remaining unreacted were washed out with a sufficient amount of Tris-buffered saline and Tween 20 (TBST). Goat anti-mouse IgG-horseradish peroxidase (HRP) was added to the plates and incubated for 1 hour at room temperature. The plates were washed with a sufficient amount of TBST, followed by reacting the peroxidase with a substrate (OPD). Absorbance at 450 nm was measured on an ELISA reader.

T1 sequence (P08581 25-932 limits assumed): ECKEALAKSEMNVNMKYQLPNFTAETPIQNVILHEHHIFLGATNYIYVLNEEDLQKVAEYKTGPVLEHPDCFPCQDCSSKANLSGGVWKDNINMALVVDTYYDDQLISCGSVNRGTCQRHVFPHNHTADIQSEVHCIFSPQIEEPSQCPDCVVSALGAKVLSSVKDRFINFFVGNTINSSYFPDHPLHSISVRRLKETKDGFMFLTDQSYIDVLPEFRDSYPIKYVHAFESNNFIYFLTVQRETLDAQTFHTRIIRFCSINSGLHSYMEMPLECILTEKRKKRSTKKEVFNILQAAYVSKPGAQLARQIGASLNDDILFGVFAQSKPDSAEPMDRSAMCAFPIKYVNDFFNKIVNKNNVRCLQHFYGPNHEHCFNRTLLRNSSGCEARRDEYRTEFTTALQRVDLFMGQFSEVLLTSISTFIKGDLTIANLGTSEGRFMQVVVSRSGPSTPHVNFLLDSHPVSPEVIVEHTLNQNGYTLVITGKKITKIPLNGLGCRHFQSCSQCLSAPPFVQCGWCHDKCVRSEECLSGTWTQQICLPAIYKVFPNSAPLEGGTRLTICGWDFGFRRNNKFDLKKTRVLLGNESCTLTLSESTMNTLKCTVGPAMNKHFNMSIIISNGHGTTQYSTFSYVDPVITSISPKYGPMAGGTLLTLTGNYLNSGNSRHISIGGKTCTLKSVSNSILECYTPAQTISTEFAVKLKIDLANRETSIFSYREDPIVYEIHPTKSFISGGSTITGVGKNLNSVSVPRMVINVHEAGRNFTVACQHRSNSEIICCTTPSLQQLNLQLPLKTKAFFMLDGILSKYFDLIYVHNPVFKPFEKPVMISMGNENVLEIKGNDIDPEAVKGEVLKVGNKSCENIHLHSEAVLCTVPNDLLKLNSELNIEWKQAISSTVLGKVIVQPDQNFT

B1: AbF46, a mouse antibody to c-Met (antibody, V domains shown)
VH: EVKLVESGGGLVQPGGSLRLSCATSGFTFTDYYMSWVRQPPGKALEWLGFIRNKANGYTTEYSASVKGRFTISRDNSQSILYLQMDTLRAEDSATYYCARDNWFAYWGQGTLVTVSA
VL: DILMTQSPSSLTVSAGEKVTMSCKSSQSLLASGNQNNYLAWHQQKPGRSPKMLIIWASTRVSGVPDRFIGSGSGTDFTLTINSVQAEDLAVYYCQQSYSAPLTFGAGTKLELK
notes: Mouse monoclonal antibody, tested as hybridoma culture supernatant in the selection ELISA; also called monoclonal antibody of hybridoma KCLRF-BP-00220
  binding result: binds
